Measurements: paper PMC3872205 (Journal of molecular biology, 2013)
Each block holds one molecule with its values, some of them ahead of it.

Assays:
Assay in all cases: ITC
[1] = target: Rb construct phosphorylated at RbC^N (S788/S795) (construct of Table 2)
[2] = target: Rb construct phosphorylated at Rb^IDL (T356/T373) (construct of Table 2)
[3] = target: Rb construct phosphorylated at Rb^PL (S608/S612) (construct of Table 2)
[4] = target: Rb^380-816∆PL/S780A with S807 and S811 substituted for alanine, phosphorylated (UniProt P06400)
[5] = target: Rb^380-794∆PL/S780A, phosphorylated (UniProt P06400)
[6] = target: Rb^380-800∆PL/S780A, phosphorylated (UniProt P06400)
[7] = target: Rb^380-800∆PL/S780A, unphosphorylated (UniProt P06400)
[8] = target: Rb^380-816∆PL/S780A with S788 and S795 substituted to alanine, unphosphorylated (UniProt P06400)
[9] = target: Rb^380-816∆PL/S780A, unphosphorylated (UniProt P06400)
[10] = target: Rb^380-816∆PL/S780A with S788 and S795 substituted to alanine, phosphorylated (UniProt P06400)
[11] = target: Rb^380-794∆PL/S780A, unphosphorylated (UniProt P06400)
[12] = target: Rb^380-816∆PL/S780A, phosphorylated (UniProt P06400)
[13] = target: Rb^53-800∆NL/∆PL/S780A, phosphorylated (UniProt P06400)
[14] = target: T1, Rb^380-816/780A, unphosphorylated (UniProt P06400 380-816, 780A)
T1 sequence (looked up): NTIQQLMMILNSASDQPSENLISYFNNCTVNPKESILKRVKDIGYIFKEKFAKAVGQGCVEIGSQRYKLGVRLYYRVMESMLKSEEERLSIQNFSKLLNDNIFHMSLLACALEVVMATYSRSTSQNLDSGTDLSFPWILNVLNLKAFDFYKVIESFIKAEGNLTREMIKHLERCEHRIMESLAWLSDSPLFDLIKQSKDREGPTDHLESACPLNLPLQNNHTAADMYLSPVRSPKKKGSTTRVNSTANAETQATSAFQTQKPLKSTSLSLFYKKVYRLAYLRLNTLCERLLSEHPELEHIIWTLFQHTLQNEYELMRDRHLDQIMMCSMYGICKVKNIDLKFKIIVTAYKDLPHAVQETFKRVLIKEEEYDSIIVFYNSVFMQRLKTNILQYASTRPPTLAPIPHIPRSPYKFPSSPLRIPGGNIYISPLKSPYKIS

[15] = target: Rb^53-800∆NL/∆PL/S780A, unphosphorylated (UniProt P06400 53-800, S780A)
[16] = target: Rb^53-800∆NL/∆PL/S780A, phosphorylated (UniProt P06400 53-800, S780A, phosphorylated with Cdk; Rb^IDL (T356/T373) and RbC^N (S788/S795) sites)

fold rise of Kd against the unphosphorylated construct [1]: 10 fold
fold inhibition of binding against the unphosphorylated construct [2]: 25 fold
fold rise of Kd against the unphosphorylated construct [3]: 9 fold
Molecule: E2F3 transactivation domain (E2F3^TD) (domain or fragment)

Kd [4]: 510 nM
Kd [5]: 270 nM
Kd [6]: 510 nM
Kd [7]: 50 nM
Kd [8]: 90 nM
Kd [9]: 70 nM
Kd [10]: 130 nM
Kd [11]: 120 nM
Kd [12]: 470 nM
Molecule: E2F1 transactivation domain (E2F1^TD, residues 372-437) (from UniProt Q01094 372-437) (domain or fragment)

fold inhibition of binding against the unphosphorylated construct [2]: 2 fold
fold reduction in binding affinity against the unphosphorylated construct [13]: 22 fold
Molecule: E2F2 transactivation domain (E2F2^TD) (domain or fragment)

Kd [14]: 70 nM
Kd [15]: 130 nM
Kd [16]: 30 µM
B1: E2F1 transactivation domain (E2F1^TD, residues 372-437) (domain or fragment, UniProt Q01094 372-437, looked up)
chain: DRLSPLVAADSLLEHVREDFSGLLPEEFISLSPPHEALDYHFGLEEGEGIRDLFDCDFGDLTPLDF
